Assay results from paper PMC10716376, “The assembly of the Mitochondrial Complex I Assembly complex uncovers a redox pathway coordination” (Nature Communications, 2023).
Residue numbers refer to the chain shown, from its start. Names may count otherwise.

B1: ACAD9WT (mature ACAD9, residues 38-621) (enzyme, human, UniProt Q9H845 38-621, looked up)
chain: AFAKELFLGKIKKKEVFPFPEVSQDELNEINQFLGPVEKFFTEEVDSRKIDQEGKIPDETLEKLKSLGLFGLQVPEEYGGLGFSNTMYSRLGEIISMDGSITVTLAAHQAIGLKGIILAGTEEQKAKYLPKLASGEHIAAFCLTEPASGSDAASIRSRATLSEDKKHYILNGSKVWITNGGLANIFTVFAKTEVVDSDGSVKDKITAFIVERDFGGVTNGKPEDKLGIRGSNTCEVHFENTKIPVENILGEVGDGFKVAMNILNSGRFSMGSVVAGLLKRLIEMTAEYACTRKQFNKRLSEFGLIQEKFALMAQKAYVMESMTYLTAGMLDQPGFPDCSIEAAMVKVFSSEAAWQCVSEALQILGGLGYTRDYPYERILRDTRILLIFEGTNEILRMYIALTGLQHAGRILTTRIHELKQAKVSTVMDTVGRRLRDSLGRTVDLGLTGNHGVVHPSLADSANKFEENTYCFGRTVETLLLRFGKTIMEEQLVLKRVANILINLYGMTAVLSRASRSIRIGLRNHDHEVLLANTFCVEAYLQNLFSLSQLDKYAPENLDEQIKKVSQQILEKRAYICAHPLDRTC
notes: human ACAD9, mature form, residues 38-621; E. coli codon-optimised synthetic gene; Cloned into pET-21d(+); Plasmid details are in Supplementary Data 1; source: E. coli C43 (DE3), purified (HisTrap, dialysed in SEC buffer)
B2: ACAD9_(S191A) (enzyme, human, UniProt Q9H845 38-621, looked up)
chain: B1 chain with S154A
notes: human ACAD9, residues 38-621, S191A; One FAD per protomer in the cryo-EM structure; source: E. coli C43 (DE3), purified (HisTrap, dialysed in SEC buffer)
B3: ACAD9_(VLCAD) (enzyme, human, UniProt Q9H845 38-621, looked up)
chain: B1 chain with L364M, L367M, Y369F, T370M
notes: human ACAD9, residues 38-621, residues 401-407 LGGLGYT replaced by the corresponding VLCAD residues 437-443 MGGMGFM; also called ACAD9 mutated to mimic VLCAD; source: E. coli C43 (DE3), purified (HisTrap, dialysed in SEC buffer)
B4: ACAD9_(A184S/SR194TS) (enzyme, human, UniProt Q9H845 38-621, looked up)
chain: B1 chain with A147S, S157T, R158S
notes: human ACAD9, residues 38-621, A184S and SR194TS combined (mimics the VLCAD gatekeeper loop); source: E. coli C43 (DE3), purified (HisTrap, dialysed in SEC buffer)
B5: VLCADWT (very long chain acyl-CoA dehydrogenase, res. 72-655) (enzyme, human, UniProt P49748 72-655, looked up)
chain: SFAVGMFKGQLTTDQVFPYPSVLNEEQTQFLKELVEPVSRFFEEVNDPAKNDALEMVEETTWQGLKELGAFGLQVPSELGGVGLCNTQYARLVEIVGMHDLGVGITLGAHQSIGFKGILLFGTKAQKEKYLPKLASGETVAAFCLTEPSSGSDAASIRTSAVPSPCGKYYTLNGSKLWISNGGLADIFTVFAKTPVTDPATGAVKEKITAFVVERGFGGITHGPPEKKMGIKASNTAEVFFDGVRVPSENVLGEVGSGFKVAMHILNNGRFGMAAALAGTMRGIIAKAVDHATNRTQFGEKIHNFGLIQEKLARMVMLQYVTESMAYMVSANMDQGATDFQIEAAISKIFGSEAAWKVTDECIQIMGGMGFMKEPGVERVLRDLRIFRIFEGTNDILRLFVALQGCMDKGKELSGLGSALKNPFGNAGLLLGEAGKQLRRRAGLGSGLSLSGLVHPELSRSGELAVRALEQFATVVEAKLIKHKKGIVNEQFLLQRLADGAIDLYAMVVVLSRASRSLSEGHPTAQHEKMLCDTWCIEAAARIREGMAALQSDPWQQELYRNFKSISKALVERGGVVTSNPLGF
notes: human very long-chain acyl-CoA dehydrogenase (VLCAD), residues 72-655; plasmid ACADVL from Addgene #38838; VLCAD-related constructs were cloned into pNIC28-BSA; also called ACADVL; source: E. coli Rosetta 2 (DE3), purified (HisTrap, SEC)
B6: ECSIT_(CTER-W324A) (domain or fragment, human, UniProt Q9BQ95 221-431, looked up)
chain: QDPVELAMFGLRHMEPDLSARVTIYQVPLPKDSTGAADPPQPHIVGIQSPDQQAALARHNPARPVFVEGPFSLWLRNKCVYYHILRADLLPPEEREVEETPEEANLYYPMQLDLEYVRSGWDNYEFDINEVEEGPVFAMCMAGAHDQATMAKWIQGLQETNPTLAQIPVVFRLAGSTRELQTSSAGLEEPPLPEDHQEEDDNLQRQQQGQS
notes: human ECSIT, residues 221-431, W324A; also called ECSIT-W324A; ECSIT_(W324A); source: E. coli BL21 Star (DE3), purified (HisTrap, SEC)
B7: ECSIT_(CTER-Y328A) (domain or fragment, human, UniProt Q9BQ95 221-431, looked up)
chain: B6 chain with A104W, Y108A
notes: human ECSIT, residues 221-431, Y328A; also called ECSIT_(Y328A); source: E. coli BL21 Star (DE3), purified (HisTrap, SEC)
B8: ECSIT_(CTER-Y327A) (domain or fragment, human, UniProt Q9BQ95 221-431, looked up)
chain: B6 chain with A104W, Y107A
notes: human ECSIT, residues 221-431, Y327A; also called ECSIT_(Y327A); source: E. coli BL21 Star (DE3), purified (HisTrap, SEC)
B9: ECSIT_(CTER-Y328F) (domain or fragment, human, UniProt Q9BQ95 221-431, looked up)
chain: B6 chain with A104W, Y108F
notes: human ECSIT, residues 221-431, Y328F; also called ECSIT_(Y328F); source: E. coli BL21 Star (DE3), purified (HisTrap, SEC)
B10: ECSIT_(CTER-Y327F) (domain or fragment, human, UniProt Q9BQ95 221-431, looked up)
chain: B6 chain with A104W, Y107F
notes: human ECSIT, residues 221-431, Y327F; also called ECSIT_(Y327F); source: E. coli BL21 Star (DE3), purified (HisTrap, SEC)

How the values were obtained:
VLCAD_(ACAD9) (human) = VLCAD_(ACAD9) (human) (UniProt P49748); assay: mass photometry; ACAD9 (or VLCAD) at 20-50 nM in 25 mM HEPES pH 7.5, 250 mM NaCl, or diluted in 4.8 uM ECSIT solution for complex formation
[1] = target: the molecule itself; assay: cryo-EM structure; ACAD9WT-ECSIT_(CTER) reconstituted (molar ratio 1:1.25) and purified by gel filtration; 25 mM HEPES, 300 mM NaCl, 1 mM TCEP, pH 7.5; C2 symmetry imposed
[2] = target: T1, ECSIT_(CTER) (residues 221-431) (human, UniProt Q9BQ95 221-431); assay: ITC
T1 chain: B6 chain with A104W

[3] = target: the molecule itself; assay: mass photometry; ACAD9 (or VLCAD) at 20-50 nM in 25 mM HEPES pH 7.5, 250 mM NaCl, or diluted in 4.8 uM ECSIT solution for complex formation
[4] = target: B1; assay: dynamic light scattering; 278 K, protein at 1-2 mg/ml; complexes reconstituted at molar ratio 1:1.25; conditions: both partners purified

Molecule	stoichiometry N [3]	binding result [4]	other results
VLCAD_(ACAD9) (from UniProt P49748 72-655) (enzyme)			stoichiometry N (VLCAD_(ACAD9) (human)): 2
B1			stoichiometry N [1]: 2; Kd [2]: 1450 nM
B2	2		
B3	2		
B4	2		
B5	2		
B6		binds	
B7		binds	
B8		binds	
B9		binds	
B10		binds	
